For assay [1], the target named is T1, rHuman IGF-1 sR (IGF-1 sR), CF (R&D Systems Cat#391-GR) (human, UniProt P08069 31-932).
T1 construct: Bought soluble receptor; also called insulin-like growth factor-1 soluble receptor; IGF-R1
Description: ECL (MSD multi-spot), antigen spotted on plate; Fab 1000 nM; blank 760.

Assay [2] concerns the target T2, Recombinant Human DLL4 (R&D Systems Cat#1506-D4/CF) (human, UniProt Q9NR61 27-524).
T2 construct: Bought protein; also called rHuman DLL4; delta-like protein 4
The description is as above.

Assay [3] deals with T3, rHuman Erythropoietin R/Fc Chimera, CF (R&D Systems Cat#963-ER) (human, UniProt P19235 25-250).
T3 construct: Bought protein; also called EPO R/Fc; Epo R; Fc part of the bought chimera not given
T3 sequence: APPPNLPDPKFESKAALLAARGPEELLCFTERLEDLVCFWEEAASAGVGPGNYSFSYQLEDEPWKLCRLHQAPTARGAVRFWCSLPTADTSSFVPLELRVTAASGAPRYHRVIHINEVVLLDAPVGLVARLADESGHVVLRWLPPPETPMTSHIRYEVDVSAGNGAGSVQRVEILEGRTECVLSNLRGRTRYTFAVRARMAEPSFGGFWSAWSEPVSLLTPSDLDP
The assay is described as above.

The target of assay [4] is T4, rHuman ErbB2/Fc Chimera, CF (R&D Systems Cat#1129-ER) (human, UniProt P04626 23-652).
T4 construct: Bought protein; also called HER2/neu; human epidermal growth factor 2 receptor; Fc part of the bought chimera not given
The assay is described as above.

The target in assay [5] is T5, rHuman CD44/Fc Chimera, CF (R&D Systems Cat#3660-CD) (human, UniProt P16070 21-220).
T5 construct: Bought protein; Fc part of the bought chimera not given
The assay is described as above.

Assay [6] addresses T6, rHuman EGF R/Fc Chimera, CF (R&D Systems Cat#344-ER) (human, UniProt P00533 25-645).
T6 construct: Bought protein; also called epidermal growth factor receptor; Fc part of the bought chimera not given
The assay is described as above.

Assay [7] deals with T7, rHuman P-Cadherin/Fc Chimera, CF (R&D Systems Cat#861-PC) (human, UniProt P22223 108-654).
T7 construct: Bought protein; also called CDH3; Fc part of the bought chimera not given
The assay is described as above.

For assay [8], the target named is T8, rHuman Notch-1/Fc Chimera, CF (R&D Systems Cat#3647-TK) (human, UniProt P46531 19-526).
T8 construct: Bought protein; Fc part of the bought chimera not given
Described as above.

The target in assay [9] is T9, rHuman HGF R/c-MET/Fc Chimera, CF (R&D Systems Cat#358-MT/CF) (human, UniProt P08581 25-932).
T9 construct: Bought protein; also called HGF R/Fc; hepatocyte growth factor receptor; Fc part of the bought chimera not given
Described as above.

For assay [10], the target named is T1, rHuman IGF-1 sR (IGF-1 sR), CF (R&D …). Description: ECL (MSD multi-spot), antigen spotted on plate; Fab 10 nM; blank 550.
For assay [11], the target named is T2, Recombinant Human DLL4 (R&D Systems …). The description is as above.
Assay [12] addresses T3, rHuman Erythropoietin R/Fc Chimera, CF …. Described as above.
For assay [13], the target named is T4, rHuman ErbB2/Fc Chimera, CF (R&D …). The assay is described as above.
Assay [14] concerns the target T5, rHuman CD44/Fc Chimera, CF (R&D Systems …). The assay is described as above.
Assay [15] deals with T6, rHuman EGF R/Fc Chimera, CF (R&D …). The assay is described as above.
Assay [16] deals with T7, rHuman P-Cadherin/Fc Chimera, CF (R&D …). The description is as above.
Assay [17] concerns the target T8, rHuman Notch-1/Fc Chimera, CF (R&D …). The description is as above.
Assay [18] has as its target T9, rHuman HGF R/c-MET/Fc Chimera, CF (R&D …). The assay is described as above.
Assay [19] addresses T10, rHuman ErbB2/Fc Chimera, CF (R&D Systems Cat#1129-ER) (human, UniProt P04626 23-652).
T10 construct: Bought Fc chimera; also called human epidermal growth factor 2 receptor; HER2/neu; Fc part of the bought chimera not given
Description: ECL (MSD Multi-Spot) binding, antigen spotted on plate; Fab 1000 nM.

Assay [20] has as its target T11, rHuman Notch-1/Fc Chimera, CF (R&D Systems Cat#3647-TK) (human, UniProt P46531 19-526).
T11 construct: Bought Fc chimera; Fc part of the bought chimera not given
Described as above.

In assay [21] the target is T12, rHuman IGF-1 sR, CF (R&D Systems Cat#391-GR) (human, UniProt P08069 31-932).
T12 construct: Bought soluble receptor; also called insulin-like growth factor-1 soluble receptor; IGF-R1
The description is as above.

Assay [22] has as its target T13, rHuman Erythropoietin R/Fc Chimera, CF (R&D Systems Cat#963-ER) (human, UniProt P19235 25-250).
T13 construct: Bought Fc chimera; also called EPO R/Fc; erythropoietin receptor; Fc part of the bought chimera not given
T13 sequence: T3 sequence
The description is as above.

In assay [23] the target is T14, rHuman P-Cadherin/Fc Chimera, CF (R&D Systems Cat#861-PC) (human, UniProt P22223 108-654).
T14 construct: Bought Fc chimera; Fc part of the bought chimera not given
Described as above.

Assay [24] has as its target T15, rHuman EGF R/Fc Chimera, CF (R&D Systems Cat#344-ER) (human, UniProt P00533 25-645).
T15 construct: Bought Fc chimera; also called epidermal growth factor receptor; Fc part of the bought chimera not given
The assay is described as above.

The target in assay [25] is T16, rHuman HGF R/c-MET/Fc Chimera, CF (R&D Systems Cat#358-MT/CF) (human, UniProt P08581 25-932).
T16 construct: Bought Fc chimera; also called HGF R/Fc; hepatocyte growth factor receptor; Fc part of the bought chimera not given
Described as above.

For assay [26], the target named is T17, Recombinant Human DLL4 (R&D Systems Cat#1506-D4/CF) (human, UniProt Q9NR61 27-524).
T17 construct: Bought recombinant protein; also called delta-like protein 4
Described as above.

The target of assay [27] is T18, rHuman CD44/Fc Chimera, CF (R&D Systems Cat#3660-CD) (human, UniProt P16070 21-220).
T18 construct: Bought Fc chimera; Fc part of the bought chimera not given
Described as above.

Assay [28] concerns the target T10, rHuman ErbB2/Fc Chimera, CF (R&D …). In words: ECL (MSD Multi-Spot) binding, antigen spotted on plate; Fab 10 nM.
For assay [29], the target named is T11, rHuman Notch-1/Fc Chimera, CF (R&D …). Described as above.
For assay [30], the target named is T12, rHuman IGF-1 sR, CF (R&D Systems …). Described as above.
In assay [31] the target is T13, rHuman Erythropoietin R/Fc Chimera, CF …. The assay is described as above.
In assay [32] the target is T14, rHuman P-Cadherin/Fc Chimera, CF (R&D …). The assay is described as above.
Assay [33] concerns the target T15, rHuman EGF R/Fc Chimera, CF (R&D …). Described as above.
For assay [34], the target named is T16, rHuman HGF R/c-MET/Fc Chimera, CF (R&D …). Described as above.
The target in assay [35] is T17, Recombinant Human DLL4 (R&D Systems …). The description is as above.
For assay [36], the target named is T18, rHuman CD44/Fc Chimera, CF (R&D Systems …). The description is as above.

The record followed here is patent US20120058906A1 (published 2012).

Where a chain is given by its changes, count along the chain named. Names and notes keep the numbering of the source.
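Further: blank spot per well as comparator with Hit at signal to blank ratio of 4 or more.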

B1: Fab VH1-46_IGHD6-6*01_IGHJ1*01_S103P & L6_IGKJ1*01 (Fab, V domains shown)
VH: QVQLVQSGAEVKKPGASVKVSCKASGYTFTSYYMHWVRQAPGQGLEWMGIINPSGGSTSYAQKFQGRVTMTRDTSTSTVYMELSSLRSEDTAVYYCAREEYSPSSAEYFQHWGQGTLVTVSS
VL: not shown
notes: Expressed in E. coli as a Fab; CH1 with Flag and His tags comes from Plasmid A and the kappa CL from Plasmid C; also called IGHV1-46*01; IGHJ1*01 S103P with IGKV3-11*01
Take B1: the ECL signal in assay [1] came out at 1340; in assay [2], 29800; in assay [3], 1510; in assay [4] it was 1280; in [5], 1220; in assay [6], 1910. Also, the ECL signal is 1380 in [7]; 1210 in assay [8]; 1360 in assay [9]; 814 in assay [10]; 55100 in assay [11]; 802 in assay [12]. For the same molecule, the ECL signal in [13] was found to be 847; in [14], 746; in assay [15], 773; in assay [16], 846; in [17], 792; in [18], 859.

B2: Fab VH1-46_IGHD6-6*01_IGHJ1*01_S102A & L6_IGKJ1*01 (Fab, V domains shown)
VH: B1 VH with S102A, P103S
VL: not shown
notes: Fab made in E. coli; The heavy chain also carries the CH1 with Flag and His tags of Plasmid A, and the light chain the kappa constant region of Plasmid C
Consider B2, for which the ECL signal in [19] amounted to 946; in assay [20], 1250; in [21], 1170; in [22] it was 1320; in [23], 1500; in assay [24], 1600. In addition, the ECL signal in [25] came to 1660; in assay [26] it was 22200; in assay [27], 1090; in assay [28] it was 670; in assay [29], 647; in assay [30], 657. Besides, the ECL signal in assay [31] worked out at 761; in assay [32] it was 691; in [33], 677; in [34], 698; in assay [35], 38700; in [36] it was 681.
